Measured values from publication PMC2997466, “The unstructured C-terminal extension of UvrD interacts with UvrB, but is dispensable for nucleotide excision repair” (DNA Repair, 2009).
Values belong to the molecule of their own block, whether it stands above or below them.

Tests used:
[1] = test system: UvrD (helicase II) (Escherichia coli MG1655); experiment: DNA-dependent ATPase, poly(dT) titration (KDNA, half-maximal activity); conditions: NER complex: 40 mM HEPES pH 8.0, 100 mM KCl, 8 mM MgCl2, 5 mM DTT, 100 ug/ml BSA, 11% glycerol, 2 mM ATP with regeneration system, 37 C; ATPase assay …
[2] = test system: UvrD1-647 (Escherichia coli MG1655); experiment: as above; conditions: NER complex: 40 mM HEPES pH 8.0, 100 mM KCl, 8 mM MgCl2, 5 mM DTT, 100 ug/ml BSA, 11% glycerol, 2 mM ATP with regeneration system, 37 C; ATPase assay …
[3] = target: T1, λ cI-UvrB 35–252 (1a2) fusion protein (E. coli, UniProt P0A8F8 35-252); experiment: two-hybrid; bacterial 2-hybrid (Dove and Hochschild) in E. coli KS1: UvrD fragments fused to RNA polymerase α 1–248, UvrB fragments fused to λ cI 1–236; chromosomal lacZ reporter, β-galactosidase in Miller Units; LB with 1 mM IPTG, 30 °C, mid-log phase; conditions: partners not purified
T1 construct: UvrB, E. coli, residues 35-252 (domains 1a and 2); also called UvrB fragment containing domains 1a and 2; source: bacterial two-hybrid fusion, pRA03 derivative, in E. coli KS1; not shown: λ cI residues 1–236, N-terminal, kept
T1 sequence (looked up): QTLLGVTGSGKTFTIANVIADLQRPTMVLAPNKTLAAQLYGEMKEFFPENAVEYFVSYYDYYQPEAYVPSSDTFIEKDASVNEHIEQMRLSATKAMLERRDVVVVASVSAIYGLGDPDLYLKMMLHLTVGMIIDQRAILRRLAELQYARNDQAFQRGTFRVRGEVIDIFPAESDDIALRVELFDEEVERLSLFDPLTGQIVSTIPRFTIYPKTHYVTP

[4] = target: T2, λ cI-UvrB 251–547 (1b3) fusion protein (E. coli, UniProt P0A8F8 251-547); experiment: as above; conditions: partners not purified
T2 construct: UvrB, E. coli, residues 251-547 (domains 1b and 3); also called UvrB domains 1b and 3; source: bacterial two-hybrid fusion, pRA03 derivative, in E. coli KS1; not shown: λ cI residues 1–236, N-terminal, kept
T2 sequence (looked up): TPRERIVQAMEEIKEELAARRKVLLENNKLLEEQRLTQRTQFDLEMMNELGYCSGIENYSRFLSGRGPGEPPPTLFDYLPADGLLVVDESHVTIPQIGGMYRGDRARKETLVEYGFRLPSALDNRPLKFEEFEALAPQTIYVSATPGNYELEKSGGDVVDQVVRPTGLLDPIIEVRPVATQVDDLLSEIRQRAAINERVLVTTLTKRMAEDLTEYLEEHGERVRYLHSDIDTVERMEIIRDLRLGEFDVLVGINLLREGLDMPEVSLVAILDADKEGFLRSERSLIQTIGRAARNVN

[5] = target: T3, λ cI-UvrB 527–673 (4) fusion protein (E. coli, UniProt P0A8F8 527-673); experiment: as above; conditions: partners not purified
T3 construct: UvrB, E. coli, residues 527-673 (domain 4); also called UvrB domain 4; source: bacterial two-hybrid fusion, pRA03 derivative, in E. coli KS1; not shown: λ cI residues 1–236, N-terminal, kept
T3 sequence (looked up): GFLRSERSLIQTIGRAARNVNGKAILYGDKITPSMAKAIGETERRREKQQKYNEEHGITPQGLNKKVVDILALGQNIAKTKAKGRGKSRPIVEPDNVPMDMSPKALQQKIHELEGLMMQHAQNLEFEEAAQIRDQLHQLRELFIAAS

[6] = target: T4, UvrD (helicase II), native untagged (E. coli, UniProt P03018 1-720); experiment: SPR; BIAcore 2000; UvrB or UvrB_(1–414) immobilised on CM5 chip by amine coupling (~8000 RU); UvrD or UvrD_(1–647) injected at 0.05-4.0 μM, 20 μl/min, 25 °C; 10 mM HEPES pH 7.4, 150 mM NaCl, 3 mM EDTA, 0.005% Tween20; conditions: both partners purified
T4 construct: UvrD (helicase II), E. coli MG1655, whole coding region from start to stop codon (720 residues); also called full-length UvrD; wild-type UvrD; source: E. coli BL21(DE3), pETDUET-UvrD, purified (heparin, MonoQ)
T4 sequence (looked up): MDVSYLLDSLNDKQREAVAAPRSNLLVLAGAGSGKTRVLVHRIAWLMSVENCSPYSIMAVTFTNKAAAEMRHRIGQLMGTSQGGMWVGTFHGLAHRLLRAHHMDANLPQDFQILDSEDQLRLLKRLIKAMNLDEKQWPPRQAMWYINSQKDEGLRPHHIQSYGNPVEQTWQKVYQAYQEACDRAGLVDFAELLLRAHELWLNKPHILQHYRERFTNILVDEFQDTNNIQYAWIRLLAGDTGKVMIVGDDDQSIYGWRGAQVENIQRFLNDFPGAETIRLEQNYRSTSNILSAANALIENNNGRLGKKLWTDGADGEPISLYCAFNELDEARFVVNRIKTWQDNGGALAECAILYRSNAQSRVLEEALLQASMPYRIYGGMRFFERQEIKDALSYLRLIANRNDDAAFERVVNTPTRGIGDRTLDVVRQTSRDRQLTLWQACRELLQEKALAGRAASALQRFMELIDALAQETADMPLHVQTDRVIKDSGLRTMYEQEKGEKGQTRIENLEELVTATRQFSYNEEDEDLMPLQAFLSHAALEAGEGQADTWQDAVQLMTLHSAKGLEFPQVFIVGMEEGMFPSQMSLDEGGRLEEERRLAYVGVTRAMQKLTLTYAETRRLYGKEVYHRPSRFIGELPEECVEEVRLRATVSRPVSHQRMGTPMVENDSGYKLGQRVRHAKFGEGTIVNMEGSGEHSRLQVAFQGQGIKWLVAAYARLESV

[7] = target: T5, ^bioUvrD, full-length UvrD biotinylated at the N-terminus (E. coli, UniProt P03018 1-720, biotin on the lysine of the N-terminal tag … (biotinylated in vivo by BirA)); experiment: SPR; BIAcore 2000; ^bioUvrD or ^bioUvrD_(1–647) immobilised on streptavidin (SA) chip (~7000 RU); UvrB or UvrB_(1–414) injected at 0.05-4.0 μM, 20 μl/min, 25 °C; 10 mM HEPES pH 7.4, 150 mM NaCl, 3 mM EDTA, 0.005% Tween20; conditions: both partners purified
T5 construct: UvrD (helicase II), E. coli MG1655, whole coding region (720 residues); The tag was inserted at the NcoI site that overlaps the start codon of uvrD; also called biotinylated UvrD; source: E. coli BL21(DE3) with pBirACm and pET28a-^bioUvrD, purified (ammonium sulphate, Softlink Avidin, HiTrap heparin)
T5 sequence (looked up): T4 sequence (looked up)

- β-galactosidase activity [3]: 111 Miller Units
- β-galactosidase activity [4]: 336 Miller Units
- β-galactosidase activity [5]: 86 Miller Units
B1: α-UvrD 1–280 (1a1b1a) fusion protein (domain or fragment, E. coli, UniProt P03018 1-280, looked up)
chain: MDVSYLLDSLNDKQREAVAAPRSNLLVLAGAGSGKTRVLVHRIAWLMSVENCSPYSIMAVTFTNKAAAEMRHRIGQLMGTSQGGMWVGTFHGLAHRLLRAHHMDANLPQDFQILDSEDQLRLLKRLIKAMNLDEKQWPPRQAMWYINSQKDEGLRPHHIQSYGNPVEQTWQKVYQAYQEACDRAGLVDFAELLLRAHELWLNKPHILQHYRERFTNILVDEFQDTNNIQYAWIRLLAGDTGKVMIVGDDDQSIYGWRGAQVENIQRFLNDFPGAETIRLE
notes: UvrD (helicase II), E. coli, residues 1-280 (domains 1a and 1b); also called N-terminal fragment of UvrD; UvrD domains 1a and 1b; source: bacterial two-hybrid fusion, pRA02 derivative, in E. coli KS1; not shown: RNA polymerase α subunit residues 1–248, N-terminal, kept

- β-galactosidase activity [3]: 140 Miller Units
B3: α-UvrD 645–720 (C-extension) fusion protein (domain or fragment, E. coli, UniProt P03018 645-720, looked up)
chain: RLRATVSRPVSHQRMGTPMVENDSGYKLGQRVRHAKFGEGTIVNMEGSGEHSRLQVAFQGQGIKWLVAAYARLESV
notes: UvrD (helicase II), E. coli, residues 645-720 (unstructured C-terminal extension); also called C-terminal extension of UvrD (residues 645–720); source: bacterial two-hybrid fusion, pRA02 derivative, in E. coli KS1; not shown: RNA polymerase α subunit residues 1–248, N-terminal, kept

More lines, now with the values behind:

Molecule: poly(dT)
- K half (uM nucleotides) [1]: 0.54
- K half (uM nucleotides) [2]: 2.5

B2: UvrB_(1–414), N-terminally His-tagged (domain or fragment, E. coli, UniProt P0A8F8 1-414, looked up)
chain: MSKPFKLNSAFKPSGDQPEAIRRLEEGLEDGLAHQTLLGVTGSGKTFTIANVIADLQRPTMVLAPNKTLAAQLYGEMKEFFPENAVEYFVSYYDYYQPEAYVPSSDTFIEKDASVNEHIEQMRLSATKAMLERRDVVVVASVSAIYGLGDPDLYLKMMLHLTVGMIIDQRAILRRLAELQYARNDQAFQRGTFRVRGEVIDIFPAESDDIALRVELFDEEVERLSLFDPLTGQIVSTIPRFTIYPKTHYVTPRERIVQAMEEIKEELAARRKVLLENNKLLEEQRLTQRTQFDLEMMNELGYCSGIENYSRFLSGRGPGEPPPTLFDYLPADGLLVVDESHVTIPQIGGMYRGDRARKETLVEYGFRLPSALDNRPLKFEEFEALAPQTIYVSATPGNYELEKSGGDVVDQVVR
notes: also called truncated derivative of UvrB comprising domains 1a, 2 and 1b
- binding result [6]: binds
- binding result [7]: binds

B4: UvrB, N-terminally hexa-His-tagged (natural protein, E. coli, UniProt P0A8F8 1-673, looked up)
chain: MSKPFKLNSAFKPSGDQPEAIRRLEEGLEDGLAHQTLLGVTGSGKTFTIANVIADLQRPTMVLAPNKTLAAQLYGEMKEFFPENAVEYFVSYYDYYQPEAYVPSSDTFIEKDASVNEHIEQMRLSATKAMLERRDVVVVASVSAIYGLGDPDLYLKMMLHLTVGMIIDQRAILRRLAELQYARNDQAFQRGTFRVRGEVIDIFPAESDDIALRVELFDEEVERLSLFDPLTGQIVSTIPRFTIYPKTHYVTPRERIVQAMEEIKEELAARRKVLLENNKLLEEQRLTQRTQFDLEMMNELGYCSGIENYSRFLSGRGPGEPPPTLFDYLPADGLLVVDESHVTIPQIGGMYRGDRARKETLVEYGFRLPSALDNRPLKFEEFEALAPQTIYVSATPGNYELEKSGGDVVDQVVRPTGLLDPIIEVRPVATQVDDLLSEIRQRAAINERVLVTTLTKRMAEDLTEYLEEHGERVRYLHSDIDTVERMEIIRDLRLGEFDVLVGINLLREGLDMPEVSLVAILDADKEGFLRSERSLIQTIGRAARNVNGKAILYGDKITPSMAKAIGETERRREKQQKYNEEHGITPQGLNKKVVDILALGQNIAKTKAKGRGKSRPIVEPDNVPMDMSPKALQQKIHELEGLMMQHAQNLEFEEAAQIRDQLHQLRELFIAAS
notes: UvrB, E. coli MG1655, whole coding region from start to stop codon (673 residues); also called full-length UvrB; source: E. coli XL1-Blue, pQE30UvrB, purified (Ni HiTrap chelating column)
- binding result [6]: binds
- binding result [7]: binds
